Laboratory results from patent US20240240203A1.

Target: Ad5 hexon capsid protein with DogTag inserted into the HVR5 loop, on Ad5 virions (Ad5-HVR5-DogTag) (human adenovirus serotype 5 (Ad5)) (UniProt P04133)

## polyhistidine-tagged recombinant DogCatcher with 18 copies of the NANP repeat sequence from the Plasmodium falciparum circumsporozoite protein fused to the C-terminus
  ligand coverage (% hexon): > 90%
